± gives the uncertainty stated by the source.
B1: Double-stranded RNA-specific adenosine deaminase, residues 296 to 358; numbered along this chain, P55265 (parent)
chain: MAEIKEKICDYLFNVSDSSALNLAKNIGLTKARDINAVLIDMERQGDVYRQGTTPPIWHLTDK

Variants of: B1
Test: abundance fitness (aPCA) (normalised: wild type 0, dead -1); higher = more abundant; growth selection in yeast, the domain comes from the species named
Details: Homo sapiens

Row | Variant | abundance fitness
1 | MAEIKEKICDCLFNVSDSSALNLAKNIGLTKARDINAVLIDMERQGDVYRQGTTPPIWHLTDK | -0.22 ± 0.076
2 | MAEIKEKICDRLFNVSDSSALNLAKNIGLTKARDINAVLIDMERQGDVYRQGTTPPIWHLTDK | -0.376 ± 0.046
3 | MAEIKEKICDALFNVSDSSALNLAKNIGLTKARDINAVLIDMERQGDVYRQGTTPPIWHLTDK | -0.126 ± 0.047
4 | MAEIKEKICDKLFNVSDSSALNLAKNIGLTKARDINAVLIDMERQGDVYRQGTTPPIWHLTDK | -0.256 ± 0.057
5 | MAEIKEKICDSLFNVSDSSALNLAKNIGLTKARDINAVLIDMERQGDVYRQGTTPPIWHLTDK | -0.255 ± 0.052
6 | MAEIKEKICDTLFNVSDSSALNLAKNIGLTKARDINAVLIDMERQGDVYRQGTTPPIWHLTDK | -0.341 ± 0.067
7 | MAEIKEKICDFLFNVSDSSALNLAKNIGLTKARDINAVLIDMERQGDVYRQGTTPPIWHLTDK | -0.056 ± 0.11
8 | MAEIKEKICDMLFNVSDSSALNLAKNIGLTKARDINAVLIDMERQGDVYRQGTTPPIWHLTDK | -0.429 ± 0.066
9 | MAEIKEKICDPLFNVSDSSALNLAKNIGLTKARDINAVLIDMERQGDVYRQGTTPPIWHLTDK | -0.175 ± 0.06
10 | MAEIKEKICDVLFNVSDSSALNLAKNIGLTKARDINAVLIDMERQGDVYRQGTTPPIWHLTDK | -0.359 ± 0.051
11 | MAEIKEKICDILFNVSDSSALNLAKNIGLTKARDINAVLIDMERQGDVYRQGTTPPIWHLTDK | -0.214 ± 0.15
12 | MAEIKEKICDELFNVSDSSALNLAKNIGLTKARDINAVLIDMERQGDVYRQGTTPPIWHLTDK | -0.035 ± 0.05
13 | MAEIKEKICDQLFNVSDSSALNLAKNIGLTKARDINAVLIDMERQGDVYRQGTTPPIWHLTDK | -0.204 ± 0.075
14 | MAEIKEKICDGLFNVSDSSALNLAKNIGLTKARDINAVLIDMERQGDVYRQGTTPPIWHLTDK | -0.391 ± 0.049
15 | MAEIKEKICDNLFNVSDSSALNLAKNIGLTKARDINAVLIDMERQGDVYRQGTTPPIWHLTDK | -0.407 ± 0.16
16 | MAEIKEKICDDLFNVSDSSALNLAKNIGLTKARDINAVLIDMERQGDVYRQGTTPPIWHLTDK | -0.488 ± 0.087
17 | MAEIKEKICHYLFNVSDSSALNLAKNIGLTKARDINAVLIDMERQGDVYRQGTTPPIWHLTDK | 0.011 ± 0.1
18 | MAEIKEKICYYLFNVSDSSALNLAKNIGLTKARDINAVLIDMERQGDVYRQGTTPPIWHLTDK | -0.453 ± 0.17
19 | MAEIKEKICRYLFNVSDSSALNLAKNIGLTKARDINAVLIDMERQGDVYRQGTTPPIWHLTDK | 0.051 ± 0.04
20 | MAEIKEKICNYLFNVSDSSALNLAKNIGLTKARDINAVLIDMERQGDVYRQGTTPPIWHLTDK | 0.085 ± 0.077
21 | MAEIKEKICMYLFNVSDSSALNLAKNIGLTKARDINAVLIDMERQGDVYRQGTTPPIWHLTDK | -0.44 ± 0.074
22 | MAEIKEKICTYLFNVSDSSALNLAKNIGLTKARDINAVLIDMERQGDVYRQGTTPPIWHLTDK | -0.157 ± 0.053

Row | Variant | abundance fitness
23 | MAEIKEKICIYLFNVSDSSALNLAKNIGLTKARDINAVLIDMERQGDVYRQGTTPPIWHLTDK | -0.502 ± 0.16
24 | MAEIKEKICWYLFNVSDSSALNLAKNIGLTKARDINAVLIDMERQGDVYRQGTTPPIWHLTDK | -0.297 ± 0.073
25 | MAEIKEKICSYLFNVSDSSALNLAKNIGLTKARDINAVLIDMERQGDVYRQGTTPPIWHLTDK | 0.05 ± 0.045
26 | MAEIKEKICGYLFNVSDSSALNLAKNIGLTKARDINAVLIDMERQGDVYRQGTTPPIWHLTDK | -0.514 ± 0.073
27 | MAEIKEKICQYLFNVSDSSALNLAKNIGLTKARDINAVLIDMERQGDVYRQGTTPPIWHLTDK | 0.051 ± 0.058
28 | MAEIKEKICLYLFNVSDSSALNLAKNIGLTKARDINAVLIDMERQGDVYRQGTTPPIWHLTDK | -0.568 ± 0.053
29 | MAEIKEKICDYAFNVSDSSALNLAKNIGLTKARDINAVLIDMERQGDVYRQGTTPPIWHLTDK | -0.481 ± 0.12
30 | MAEIKEKICDYEFNVSDSSALNLAKNIGLTKARDINAVLIDMERQGDVYRQGTTPPIWHLTDK | -0.115 ± 0.098
31 | MAEIKEKICDYFFNVSDSSALNLAKNIGLTKARDINAVLIDMERQGDVYRQGTTPPIWHLTDK | -0.727 ± 0.3
32 | MAEIKEKICDYVFNVSDSSALNLAKNIGLTKARDINAVLIDMERQGDVYRQGTTPPIWHLTDK | -0.669 ± 0.078
33 | MAEIKEKICDYDFNVSDSSALNLAKNIGLTKARDINAVLIDMERQGDVYRQGTTPPIWHLTDK | -0.706 ± 0.34
34 | MAEIKEKICDYQFNVSDSSALNLAKNIGLTKARDINAVLIDMERQGDVYRQGTTPPIWHLTDK | -0.512 ± 0.16
35 | MAEIKEKICDYHFNVSDSSALNLAKNIGLTKARDINAVLIDMERQGDVYRQGTTPPIWHLTDK | -0.46 ± 0.21
36 | MAEIKEKICDYMFNVSDSSALNLAKNIGLTKARDINAVLIDMERQGDVYRQGTTPPIWHLTDK | -0.82 ± 0.21
37 | MAEIKEKICDYRFNVSDSSALNLAKNIGLTKARDINAVLIDMERQGDVYRQGTTPPIWHLTDK | -0.367 ± 0.085
38 | MAEIKEKICDYCFNVSDSSALNLAKNIGLTKARDINAVLIDMERQGDVYRQGTTPPIWHLTDK | -1.02 ± 0.3
39 | MAEIKEKICDYSFNVSDSSALNLAKNIGLTKARDINAVLIDMERQGDVYRQGTTPPIWHLTDK | -0.295 ± 0.096
40 | MAEIKEKICDYIFNVSDSSALNLAKNIGLTKARDINAVLIDMERQGDVYRQGTTPPIWHLTDK | -0.69 ± 0.42
41 | MAEIKEKICDYGFNVSDSSALNLAKNIGLTKARDINAVLIDMERQGDVYRQGTTPPIWHLTDK | -0.441 ± 0.09
42 | MAEIKEKICDYTFNVSDSSALNLAKNIGLTKARDINAVLIDMERQGDVYRQGTTPPIWHLTDK | -0.99 ± 0.36
43 | MAEIKEKICDYKFNVSDSSALNLAKNIGLTKARDINAVLIDMERQGDVYRQGTTPPIWHLTDK | -0.95 ± 0.23

— the Human Domainome abundance scans (Beltran et al. 2025)
